The target of assay [1] is T1, IL-17D (human).
T1 chain: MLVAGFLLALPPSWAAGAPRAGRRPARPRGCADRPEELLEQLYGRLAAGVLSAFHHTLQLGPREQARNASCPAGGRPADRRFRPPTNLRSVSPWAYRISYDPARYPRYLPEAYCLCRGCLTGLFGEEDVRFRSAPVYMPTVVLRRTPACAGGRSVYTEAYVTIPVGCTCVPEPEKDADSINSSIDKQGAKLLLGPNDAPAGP
As to the kind of experiment: competition.

Assay [2] deals with T2, human IL-17A (human).
T2 chain: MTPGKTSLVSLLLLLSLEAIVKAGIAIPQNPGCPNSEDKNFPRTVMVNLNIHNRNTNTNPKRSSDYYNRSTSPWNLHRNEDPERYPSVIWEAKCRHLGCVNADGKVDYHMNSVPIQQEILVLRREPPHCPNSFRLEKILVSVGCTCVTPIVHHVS
Nature of the assay: SPR, direct setup. Background: Surface plasmon resonance follows binding to a sensor surface in real time, without labels.

Assay [3] concerns the target T3, IL-17C (human).
T3 chain: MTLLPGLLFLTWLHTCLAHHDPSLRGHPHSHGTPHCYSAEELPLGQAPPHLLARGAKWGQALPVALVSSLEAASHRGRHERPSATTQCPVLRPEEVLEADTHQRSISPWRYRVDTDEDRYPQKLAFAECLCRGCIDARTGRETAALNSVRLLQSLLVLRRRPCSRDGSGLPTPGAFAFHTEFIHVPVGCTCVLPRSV
Nature of the assay: competition ELISA. A general note: In an ELISA, binding on a coated surface is turned into a signal by an enzyme label.

The target of assay [4] is T4, IL-17B (human).
T4 chain: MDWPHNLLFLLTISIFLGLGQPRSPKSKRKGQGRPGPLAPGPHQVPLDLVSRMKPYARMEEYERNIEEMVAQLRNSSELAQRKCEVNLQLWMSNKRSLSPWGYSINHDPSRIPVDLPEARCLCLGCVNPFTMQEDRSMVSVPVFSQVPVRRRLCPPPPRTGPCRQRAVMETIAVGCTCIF
As to the kind of experiment: competition ELISA.

The target in assay [5] is T5, IL-17E (human).
T5 chain: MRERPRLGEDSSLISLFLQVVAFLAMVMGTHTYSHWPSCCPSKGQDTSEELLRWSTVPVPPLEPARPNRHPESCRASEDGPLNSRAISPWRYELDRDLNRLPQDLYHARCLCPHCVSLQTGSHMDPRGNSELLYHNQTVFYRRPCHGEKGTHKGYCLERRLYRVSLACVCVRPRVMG
Nature of the assay: competition ELISA.

In assay [6] the target is T6, cynomolgus IL-17A (cynomolgus).
T6 chain: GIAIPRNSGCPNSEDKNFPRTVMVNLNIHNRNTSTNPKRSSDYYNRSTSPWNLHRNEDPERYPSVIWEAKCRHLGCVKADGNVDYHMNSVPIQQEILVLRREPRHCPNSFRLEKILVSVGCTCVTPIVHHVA
Nature of the assay: SPR.

For assay [7], the target named is T7, IL-17F (human).
T7 chain: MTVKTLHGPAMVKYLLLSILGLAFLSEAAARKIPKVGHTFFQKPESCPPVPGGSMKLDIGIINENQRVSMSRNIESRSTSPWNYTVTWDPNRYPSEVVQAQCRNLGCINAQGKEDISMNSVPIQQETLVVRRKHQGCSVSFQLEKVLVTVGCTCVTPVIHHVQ
As to the kind of experiment: competition ELISA.

Assay [8] concerns the target T2, human IL-17A. Nature of the assay: SPR, capture setup.
The target in assay [9] is T8, human serum albumin (human, UniProt P02768). Nature of the assay: SPR, pH 5.5.
The target in assay [10] is T8, human serum albumin. Nature of the assay: SPR, pH 7.4.
Assay [11] concerns the target T2, human IL-17A. Nature of the assay: SPR.

B1: A1 (27-07-G02-sc01) (antibody)
chain: DIQMTQSPSSLSASVGDRVTITCQASQTINYWLAWYQQKPGKAPKLLIYRASTLASGVPSRFSGSGSGTDFTLTISSLQPEDFATYYCQNYYYSTSRSYGFGGGTKLTVLGGGGGSGGGGSGGGGSGGGGSEVQLVESGGGLVQPGGSLRLSCAASGFSFSSDYWMCWVRQAPGKGLEWIGCIYAGDVDDTDYASWARGRFTISRDNSKNTVYLQMNSLRAEDTAVYYCARVDGFDITYFDLWGQGTLVTVSS
One may read the Kd as the constant that tells how readily two partners part at equilibrium. With B1, the binding result in assay [1], in assay [3], in assay [4], in assay [5] and in assay [7] was “no binding” each time. Also, the results for the Kd in assay [2] and in [6] were 0.14 nM and 0.9 nM, respectively.

B2: PRO571 (27-31-C04-sc01) (antibody)
chain: DIQMTQSPSSLSASVGDRVTITCQASESIYRYLSWYQQKPGKAPKLLIYLASTLTSGVPSRFSGSGSGTDFTLTISSLQPEDFATYYCQSNFGTASTTYYNTFGGGTKLTVLGGGGGSGGGGSGGGGSGGGGSEVQLVESGGGLVQPGGSLRLSCAASGFSFSGFYYMCWVRQAPGKGLEWIGCIDTGDGTTYYASWAKGRFTISRDNSKNTVYLQMNSLRAEDTAVYYCARDAAYGGYAYPAHGMDLWGQGTLVTVSS
Turning to B2, the binding result in assay [1], in assay [3], in assay [4], in assay [5] and in assay [7] was “no binding” each time. In addition, the Kd in assay [2] worked out at 0.04 nM; in assay [8], 0.12 nM; in [6] it was 0.033 nM.

B3: A3 HSA arm (antibody)
chain 1: EVQLVESGGGLVQPGGSLRLSCAASGFSLSSNAMGWVRQAPGKGLEYIGIISVGGFTYYASWAKGRFTISRDNSKNTVYLQMNSLRAEDTATYFCARDRHGGDSSGAFYLWGQGTLVTVSSASTKGPSVFPLAPSSKSTSGGTAALGCLVKDYFPEPVTVSWNSGALTSGVHTFPAVLQSSGLYSLSSVVTVPSSSLGTQTYICNVNHKPSNTKVDKKVEPKSCGGGGSGGGGSDIQMTQSPSSLSASVGDRVTITCQASQTINYWLAWYQQKPGKAPKLLIYRASTLASGVPSRFSGSGSGTDFTLTISSLQPEDFATYYCQNYYYSTSRSYGFGGGTKLTVLGGGGGSGGGGSGGGGSGGGGSEVQLVESGGGLVQPGGSLRLSCAASGFSFSSDYWMCWVRQAPGKGLEWIGCIYAGDVDDTDYASWARGRFTISRDNSKNTVYLQMNSLRAEDTAVYYCARVDGFDITYFDLWGQGTLVTVSS
chain 2: DIQMTQSPSSLSASVGDRVTITCQSSESVYSNNQLSWYQQKPGQPPKLLIYDASDLASGVPSRFSGSGSGTDFTLTISSLQPEDFATYYCAGGFSSSSDTAFGGGTKLTVLGRTRTVAAPSVFIFPPSDEQLKSGTASVVCLLNNFYPREAKVQWKVDNALQSGNSQESVTEQDSKDSTYSLSSTLTLSKADYEKHKVYACEVTHQGLSSPVTKSFNRGECGGGGSGGGGSDIQMTQSPSSLSASVGDRVTINCQASESISSWLAWYQQKPGKRPKLLIYKASTLASGVPSRFSGSGSGTDYTLTISSLQPEDFATYYCQGYYLDSSVDDNVFGGGTKLTVLGGGGGSGGGGSGGGGSGGGGSEVQLVESGGGLVQPGGSLRLSCAASGIDFSTYGISWVRQAPGKGLEWIAYIYPDYGITDYASWVNGRFTISLDNAQNTVYLQMNSLRAEDTAVYYCARSGSYYSRGWGAHYFNLWGQGTLVTVSS
Turning to B3, the equilibrium dissociation constant (Kd) in assay [9] stood at 0.947 nM; in [10] it was 1.37 nM.

B4: A3 IL-17A arm (antibody)
chain 1: EVQLVESGGGLVQPGGSLRLSCAASGFSLSSNAMGWVRQAPGKGLEYIGIISVGGFTYYASWAKGRFTISRDNSKNTVYLQMNSLRAEDTATYFCARDRHGGDSSGAFYLWGQGTLVTVSSASTKGPSVFPLAPSSKSTSGGTAALGCLVKDYFPEPVTVSWNSGALTSGVHTFPAVLQSSGLYSLSSVVTVPSSSLGTQTYICNVNHKPSNTKVDKKVEPKSCGGGGSGGGGSDIQMTQSPSSLSASVGDRVTITCQASQTINYWLAWYQQKPGKAPKLLIYRASTLASGVPSRFSGSGSGTDFTLTISSLQPEDFATYYCQNYYYSTSRSYGFGGGTKLTVLGGGGGSGGGGSGGGGSGGGGSEVQLVESGGGLVQPGGSLRLSCAASGFSFSSDYWMCWVRQAPGKGLEWIGCIYAGDVDDTDYASWARGRFTISRDNSKNTVYLQMNSLRAEDTAVYYCARVDGFDITYFDLWGQGTLVTVSS
chain 2: DIQMTQSPSSLSASVGDRVTITCQSSESVYSNNQLSWYQQKPGQPPKLLIYDASDLASGVPSRFSGSGSGTDFTLTISSLQPEDFATYYCAGGFSSSSDTAFGGGTKLTVLGRTRTVAAPSVFIFPPSDEQLKSGTASVVCLLNNFYPREAKVQWKVDNALQSGNSQESVTEQDSKDSTYSLSSTLTLSKADYEKHKVYACEVTHQGLSSPVTKSFNRGECGGGGSGGGGSDIQMTQSPSSLSASVGDRVTINCQASESISSWLAWYQQKPGKRPKLLIYKASTLASGVPSRFSGSGSGTDYTLTISSLQPEDFATYYCQGYYLDSSVDDNVFGGGTKLTVLGGGGGSGGGGSGGGGSGGGGSEVQLVESGGGLVQPGGSLRLSCAASGIDFSTYGISWVRQAPGKGLEWIAYIYPDYGITDYASWVNGRFTISLDNAQNTVYLQMNSLRAEDTAVYYCARSGSYYSRGWGAHYFNLWGQGTLVTVSS
Molecule B4 displayed a Kd in assay [11] of 1.53 nM.

B5: A4 HSA arm (antibody)
chain 1: EVQLVESGGGLVQPGGSLRLSCAASGFSFSSDYWMCWVRQAPGKGLEWIGCIYAGDVDDTDYASWARGRFTISRDNSKNTVYLQMNSLRAEDTAVYYCARVDGFDITYFDLWGQGTLVTVSSASTKGPSVFPLAPSSKSTSGGTAALGCLVKDYFPEPVTVSWNSGALTSGVHTFPAVLQSSGLYSLSSVVTVPSSSLGTQTYICNVNHKPSNTKVDKKVEPKSCGGGGSGGGGSDIQMTQSPSSLSASVGDRVTITCQSSESVYSNNQLSWYQQKPGQPPKLLIYDASDLASGVPSRFSGSGSGTDFTLTISSLQPEDFATYYCAGGFSSSSDTAFGGGTKLTVLGGGGGSGGGGSGGGGSGGGGSEVQLVESGGGLVQPGGSLRLSCAASGFSLSSNAMGWVRQAPGKGLEYIGIISVGGFTYYASWAKGRFTISRDNSKNTVYLQMNSLRAEDTATYFCARDRHGGDSSGAFYLWGQGTLVTVSS
chain 2: DIQMTQSPSSLSASVGDRVTITCQASQTINYWLAWYQQKPGKAPKLLIYRASTLASGVPSRFSGSGSGTDFTLTISSLQPEDFATYYCQNYYYSTSRSYGFGGGTKLTVLGRTRTVAAPSVFIFPPSDEQLKSGTASVVCLLNNFYPREAKVQWKVDNALQSGNSQESVTEQDSKDSTYSLSSTLTLSKADYEKHKVYACEVTHQGLSSPVTKSFNRGECGGGGSGGGGSDIQMTQSPSSLSASVGDRVTINCQASESISSWLAWYQQKPGKRPKLLIYKASTLASGVPSRFSGSGSGTDYTLTISSLQPEDFATYYCQGYYLDSSVDDNVFGGGTKLTVLGGGGGSGGGGSGGGGSGGGGSEVQLVESGGGLVQPGGSLRLSCAASGIDFSTYGISWVRQAPGKGLEWIAYIYPDYGITDYASWVNGRFTISLDNAQNTVYLQMNSLRAEDTAVYYCARSGSYYSRGWGAHYFNLWGQGTLVTVSS
On to B5, for which the dissociation constant Kd in assay [9] turned out to be 1.67 nM; in assay [10] it was 4.79 nM.
